According to patent publication US10428140B2, “Anti-EphA4 antibody” (EISAI R&D MANAGEMENT CO., LTD., priority 2015, dated 2019):
Numbering of substitutions follows the chain as printed.

B1: 158 (antibody, V domains shown)
VH: QVQLVQSGSELKKPGASVKVSCKASGYTFTDYSMHWVRQAPGQGLKWMGWINTETGEPTYAQGFTGRFVFSLDTSVSTAYLQISSLKAEDTAVYYCARIPLYYYGSRYWYFDVWGQGTTVTVSS
VL: DIQMTQSPSSLSASVGDRVTITCRASENIYRNLAWYQQKPGKAPQLLLYAATNLADGVPSRFSGSGSGTDYTLTISSLQPEDFATYYCQHFWGTPWTFGQGTKVEIK
modifications: synthetic humanized antibody heavy chain variable region sequence; synthetic humanized antibody light chain variable region sequence
B2: 144 (antibody, V domains shown)
VH: B1 VH with K46E, Q62D, G63D, T65K
VL: B1 VL
modifications: synthetic humanized antibody heavy chain variable region sequence; synthetic humanized antibody light chain variable region sequence
B3: 159 (antibody, V domains shown)
VH: B1 VH with Q62D, G63D, T65K
VL: B1 VL
modifications: synthetic humanized antibody heavy chain variable region sequence; synthetic humanized antibody light chain variable region sequence
B4: 160 (antibody, V domains shown)
VH: B1 VH with V2I, Q62D, G63D, T65K
VL: B1 VL
modifications: synthetic humanized antibody heavy chain variable region sequence; synthetic humanized antibody light chain variable region sequence
B5: 133 (antibody, V domains shown)
VH: B1 VH with K46E
VL: EIVMTQSPATLSVSPGERATLSCRASENIYRNLAWYQQKPGQSPRLLIYAATNLADGIPARFSGSGSGTEYTLTISSLQSEDFAVYYCQHFWGTPWTFGQGTKVEIK
modifications: synthetic humanized antibody heavy chain variable region sequence; synthetic humanized antibody light chain variable region sequence

What follows are molecules tested against T1, human EphA2 (Homo sapiens, UniProt P29317) (assay: Selectivity ELISA of humanized antibodies for human Eph receptor). Details: coated protein 1 nM.
T1 construct: a protein of the extracellular region of each human Eph receptor fused with the SEAP protein and the His tag; made in house; host or cells: Expi293F cells (culture supernatant)
T1 sequence (P29317 24-537 limits assumed): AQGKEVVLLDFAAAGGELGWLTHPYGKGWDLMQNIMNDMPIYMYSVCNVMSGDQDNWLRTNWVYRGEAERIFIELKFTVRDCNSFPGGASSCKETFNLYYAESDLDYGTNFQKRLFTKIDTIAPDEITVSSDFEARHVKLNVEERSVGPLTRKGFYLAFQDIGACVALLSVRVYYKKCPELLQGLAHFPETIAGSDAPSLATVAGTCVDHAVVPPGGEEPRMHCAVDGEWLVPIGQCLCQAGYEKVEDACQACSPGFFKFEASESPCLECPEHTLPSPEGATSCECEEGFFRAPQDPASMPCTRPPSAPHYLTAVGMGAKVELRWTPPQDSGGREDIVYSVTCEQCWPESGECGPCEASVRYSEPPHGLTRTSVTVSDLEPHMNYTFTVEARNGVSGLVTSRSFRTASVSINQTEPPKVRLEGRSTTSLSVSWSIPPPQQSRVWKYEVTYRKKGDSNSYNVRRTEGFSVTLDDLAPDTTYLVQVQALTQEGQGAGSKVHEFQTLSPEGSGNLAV
Format: binding
Outline: (§1)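 His-tagged SEAP fusions of each human Eph receptor extracellular region, from Expi293F supernatants, were captured at 1 nM on anti-His-coated wells. Humanized antibody was bound 1 h at room temperature, then detected with HRP […] IgG. TMB development was acid-stopped and read at 450 nm.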
With B1 the “hEphA2-SEAP-: absorbance at 450 nm, percentage with respect to hEphA4-SEAP-His as 100%” value was 6.7%.
For B2, the “hEphA2-SEAP-: absorbance at 450 nm, percentage with respect to hEphA4-SEAP-His as 100%” value was 5.6%.
In the case of B3, the “hEphA2-SEAP-: absorbance at 450 nm, percentage with respect to hEphA4-SEAP-His as 100%” value is reported as 5.4%.
B4 was tested, and the “hEphA2-SEAP-: absorbance at 450 nm, percentage with respect to hEphA4-SEAP-His as 100%” value was 6.1%.
B5 was tested, and the “hEphA2-SEAP-: absorbance at 450 nm, percentage with respect to hEphA4-SEAP-His as 100%” value was 4.7%.

The molecules below were run against T2, human EphA1 (Homo sapiens, UniProt P21709) in the same assay as above. Details: coated protein 1 nM.
T2 construct: a protein of the extracellular region of each human Eph receptor fused with the SEAP protein and the His tag; made in house; host or cells: Expi293F cells (culture supernatant)
T2 sequence (P21709 26-547 limits assumed): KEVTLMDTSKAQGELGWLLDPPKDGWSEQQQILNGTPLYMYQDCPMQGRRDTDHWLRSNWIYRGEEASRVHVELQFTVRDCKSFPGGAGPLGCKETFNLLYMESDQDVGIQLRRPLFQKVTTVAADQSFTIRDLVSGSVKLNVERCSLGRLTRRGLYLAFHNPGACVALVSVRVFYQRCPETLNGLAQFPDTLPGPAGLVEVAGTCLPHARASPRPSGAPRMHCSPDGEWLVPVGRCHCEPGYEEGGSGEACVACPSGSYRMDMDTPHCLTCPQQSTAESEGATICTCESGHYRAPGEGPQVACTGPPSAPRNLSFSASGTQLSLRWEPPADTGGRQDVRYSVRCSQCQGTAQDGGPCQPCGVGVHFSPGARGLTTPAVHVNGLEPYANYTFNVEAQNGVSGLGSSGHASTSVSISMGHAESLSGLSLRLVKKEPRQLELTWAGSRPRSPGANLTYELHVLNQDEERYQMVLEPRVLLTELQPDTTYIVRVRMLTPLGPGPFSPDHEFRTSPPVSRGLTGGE
Format: binding
Outline: as §1
In the case of B1, the “hEphA1-SEAP-: absorbance at 450 nm, percentage with respect to hEphA4-SEAP-His as 100%” value is reported as 6.5%.
For B2, the “hEphA1-SEAP-: absorbance at 450 nm, percentage with respect to hEphA4-SEAP-His as 100%” value was 5.6%.
With B3 the “hEphA1-SEAP-: absorbance at 450 nm, percentage with respect to hEphA4-SEAP-His as 100%” value was 5.4%.
For B4, the “hEphA1-SEAP-: absorbance at 450 nm, percentage with respect to hEphA4-SEAP-His as 100%” value was 6.5%.
For B5, the “hEphA1-SEAP-: absorbance at 450 nm, percentage with respect to hEphA4-SEAP-His as 100%” value was 4.9%.

These molecules were tested against T3, human EphA4 (Homo sapiens, UniProt P54764) in the same assay as above. Details: coated protein 1 nM; reference set to 100%.
T3 construct: made in house; not restated for the human SEAP-His protein
T3 sequence (P54764 20-547): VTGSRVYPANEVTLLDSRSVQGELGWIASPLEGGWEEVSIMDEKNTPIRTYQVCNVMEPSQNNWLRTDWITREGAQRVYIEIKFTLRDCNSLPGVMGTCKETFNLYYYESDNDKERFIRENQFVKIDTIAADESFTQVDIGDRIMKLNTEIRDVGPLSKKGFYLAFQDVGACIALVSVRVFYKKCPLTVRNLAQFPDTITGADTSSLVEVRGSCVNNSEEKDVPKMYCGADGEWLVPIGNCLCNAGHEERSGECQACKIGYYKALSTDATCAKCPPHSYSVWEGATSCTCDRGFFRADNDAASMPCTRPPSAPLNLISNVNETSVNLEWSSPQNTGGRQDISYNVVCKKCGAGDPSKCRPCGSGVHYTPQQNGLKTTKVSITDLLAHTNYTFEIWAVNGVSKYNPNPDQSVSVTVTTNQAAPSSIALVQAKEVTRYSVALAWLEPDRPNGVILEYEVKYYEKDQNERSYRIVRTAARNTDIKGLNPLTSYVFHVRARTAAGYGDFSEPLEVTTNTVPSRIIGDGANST
Format: binding
Outline: as §1
In the case of B1, the “hEphA4-SEAP-: absorbance at 450 nm, percentage with respect to hEphA4-SEAP-His as 100%” value is reported as 100%.
In the case of B2, the “hEphA4-SEAP-: absorbance at 450 nm, percentage with respect to hEphA4-SEAP-His as 100%” value is reported as 100%.
For B3, the “hEphA4-SEAP-: absorbance at 450 nm, percentage with respect to hEphA4-SEAP-His as 100%” value was 100%.
B4 was tested, and the “hEphA4-SEAP-: absorbance at 450 nm, percentage with respect to hEphA4-SEAP-His as 100%” value was 100%.
For B5, the “hEphA4-SEAP-: absorbance at 450 nm, percentage with respect to hEphA4-SEAP-His as 100%” value was 100%.

The molecules below were run against T4, human EphA8 (Homo sapiens, UniProt P29322) in the same assay as above. Details: coated protein 1 nM.
T4 construct: a protein of the extracellular region of each human Eph receptor fused with the SEAP protein and the His tag; made in house; host or cells: Expi293F cells (culture supernatant)
T4 sequence (P29322 28-542 limits assumed): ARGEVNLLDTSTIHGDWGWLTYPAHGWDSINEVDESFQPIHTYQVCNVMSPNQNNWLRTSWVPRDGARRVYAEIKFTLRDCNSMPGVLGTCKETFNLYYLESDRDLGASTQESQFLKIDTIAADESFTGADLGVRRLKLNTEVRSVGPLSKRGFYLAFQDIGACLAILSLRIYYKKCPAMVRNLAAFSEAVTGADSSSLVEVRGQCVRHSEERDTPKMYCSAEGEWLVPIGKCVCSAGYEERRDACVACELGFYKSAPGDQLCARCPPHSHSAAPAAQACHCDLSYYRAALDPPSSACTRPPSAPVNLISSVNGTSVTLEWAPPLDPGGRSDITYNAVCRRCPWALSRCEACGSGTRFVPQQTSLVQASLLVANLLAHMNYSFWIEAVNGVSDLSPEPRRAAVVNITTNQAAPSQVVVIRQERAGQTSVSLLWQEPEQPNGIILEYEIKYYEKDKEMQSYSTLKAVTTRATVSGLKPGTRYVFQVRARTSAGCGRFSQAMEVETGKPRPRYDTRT
Format: binding
Outline: as §1
In the case of B1, the “hEphA8-SEAP-: absorbance at 450 nm, percentage with respect to hEphA4-SEAP-His as 100%” value is reported as 6.4%.
In the case of B2, the “hEphA8-SEAP-: absorbance at 450 nm, percentage with respect to hEphA4-SEAP-His as 100%” value is reported as 5.8%.
B3 was tested, and the “hEphA8-SEAP-: absorbance at 450 nm, percentage with respect to hEphA4-SEAP-His as 100%” value was 5.5%.
In the case of B4, the “hEphA8-SEAP-: absorbance at 450 nm, percentage with respect to hEphA4-SEAP-His as 100%” value is reported as 5.4%.
With B5 the “hEphA8-SEAP-: absorbance at 450 nm, percentage with respect to hEphA4-SEAP-His as 100%” value was 4.7%.

The molecules below were run against T5, human EphA6 (Homo sapiens, UniProt Q9UF33) in the same assay as above. Details: coated protein 1 nM.
T5 construct: a protein of the extracellular region of each human Eph receptor fused with the SEAP protein and the His tag; made in house; host or cells: Expi293F cells (culture supernatant)
T5 sequence (Q9UF33 23-550 limits assumed): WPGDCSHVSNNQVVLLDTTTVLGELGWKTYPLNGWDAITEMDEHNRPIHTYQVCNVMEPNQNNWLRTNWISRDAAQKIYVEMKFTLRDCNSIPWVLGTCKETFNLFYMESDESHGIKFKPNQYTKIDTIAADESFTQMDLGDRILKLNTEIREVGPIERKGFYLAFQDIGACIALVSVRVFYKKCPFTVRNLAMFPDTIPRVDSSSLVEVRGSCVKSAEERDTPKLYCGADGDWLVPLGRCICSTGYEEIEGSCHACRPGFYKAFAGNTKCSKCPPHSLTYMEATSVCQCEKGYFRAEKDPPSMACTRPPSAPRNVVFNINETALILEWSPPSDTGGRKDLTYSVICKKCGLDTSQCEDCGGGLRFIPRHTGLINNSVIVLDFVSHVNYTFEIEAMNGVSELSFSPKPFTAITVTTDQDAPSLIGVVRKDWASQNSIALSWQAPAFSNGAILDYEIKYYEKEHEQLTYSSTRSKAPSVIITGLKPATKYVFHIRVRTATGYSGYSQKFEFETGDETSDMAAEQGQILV
Format: binding
Outline: as §1
In the case of B1, the “hEphA6-SEAP-: absorbance at 450 nm, percentage with respect to hEphA4-SEAP-His as 100%” value is reported as 10.0%.
With B2 the “hEphA6-SEAP-: absorbance at 450 nm, percentage with respect to hEphA4-SEAP-His as 100%” value was 8.1%.
For B3, the “hEphA6-SEAP-: absorbance at 450 nm, percentage with respect to hEphA4-SEAP-His as 100%” value was 7.6%.
With B4 the “hEphA6-SEAP-: absorbance at 450 nm, percentage with respect to hEphA4-SEAP-His as 100%” value was 8.7%.
For B5, the “hEphA6-SEAP-: absorbance at 450 nm, percentage with respect to hEphA4-SEAP-His as 100%” value was 8.8%.
